Biological target: cortactin, endogenous in hE-CHO cells (hamster (endogenous in CHO))
Assay: co-IP

Work on “human E-cadherin stably expressed in CHO cells (hE-CHO cells) (from UniProt P12830 155-882) (receptor)” yielded a percent of total cellular E-cadherin found in the cortactin immunoprecipitates of 1 to 2%.
